Positions count from the first letter of the chain named.
B1: GM130 N122-oDi-his (other)
chain: MWPPRFPPPRPGMSEETRQSKLAAAKKKLREYQQKNSPGVPAGAKKKKKIKNGHSPERTSASDCQSAENVPTDHTAPAPPSTAAATMFLGVVPSPDADLIQSHDAGNCSNLMEETKTFSSTEGEIAALKQEIAALKKENAALKFEIAALKQG
B2: GM130 N122-oTet-his (other)
chain: B1 chain with I125L, L128I, I132L, L135I, N139L, L142I, F144W, I146L, L149I

Molecular target: the molecule itself
Experiment: cross-linking

Protein | stoichiometry N
B1 | 2
B2 | 4
